Earlier results in patent US20250255929A1, “METHODS FOR REDUCING RISKS ASSOCIATED WITH HEART FAILURE AND FACTORS ASSOCIATED THEREWITH” (Stealth BioTherapeutics Inc., priority 2012, published 2025).
Square brackets hold non-standard residues; d marks the D form. Ends that are not written are not given here. Dmt = Cc1cc(O)cc(C)c1C[C@H](N)C(=O)O

Tested on: several mammalian cell types
Details: energy-independent manner, Zhao et al., J. Pharmacol Exp Ther., 304:425-432, 2003; cited from earlier work

2′,6′-Dmt-D-Arg-Phe-Lys-NH2 ([Dmt][dR]FK-NH2)
penetration of the plasma membrane: readily penetrates the plasma membrane
